Paper PMC3043165 (2011)
Where no end group is shown, it is not given here.

Key:
[1] = target: T1, integrin αvβ3 (Homo sapiens, UniProt P06756); experiment: competitive solid-phase binding assay with biotinylated vitronectin
T1 chain 1: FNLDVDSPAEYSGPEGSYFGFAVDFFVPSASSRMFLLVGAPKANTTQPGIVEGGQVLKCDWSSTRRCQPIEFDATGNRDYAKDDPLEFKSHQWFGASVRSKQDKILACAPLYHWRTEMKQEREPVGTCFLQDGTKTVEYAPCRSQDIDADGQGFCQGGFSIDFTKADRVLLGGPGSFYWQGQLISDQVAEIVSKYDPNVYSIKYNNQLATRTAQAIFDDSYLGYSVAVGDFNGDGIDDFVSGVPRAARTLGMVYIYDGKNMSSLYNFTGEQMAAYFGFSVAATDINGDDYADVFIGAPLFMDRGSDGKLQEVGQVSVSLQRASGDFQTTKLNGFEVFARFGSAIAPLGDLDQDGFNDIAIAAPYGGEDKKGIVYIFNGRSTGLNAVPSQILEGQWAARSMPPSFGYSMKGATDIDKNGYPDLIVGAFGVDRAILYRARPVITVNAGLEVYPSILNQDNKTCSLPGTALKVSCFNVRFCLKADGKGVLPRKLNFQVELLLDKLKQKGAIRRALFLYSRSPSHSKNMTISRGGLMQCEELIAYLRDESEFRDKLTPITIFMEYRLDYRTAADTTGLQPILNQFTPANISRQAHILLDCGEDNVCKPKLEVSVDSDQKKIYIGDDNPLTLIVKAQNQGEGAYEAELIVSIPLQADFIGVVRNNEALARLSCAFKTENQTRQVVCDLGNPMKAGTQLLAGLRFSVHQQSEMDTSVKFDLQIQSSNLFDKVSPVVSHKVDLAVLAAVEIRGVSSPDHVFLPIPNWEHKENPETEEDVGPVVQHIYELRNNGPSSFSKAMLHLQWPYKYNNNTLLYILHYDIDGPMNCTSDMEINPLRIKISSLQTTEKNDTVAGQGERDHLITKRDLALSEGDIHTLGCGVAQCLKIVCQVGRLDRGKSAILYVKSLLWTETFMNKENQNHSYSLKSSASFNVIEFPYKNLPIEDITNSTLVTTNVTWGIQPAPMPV
T1 chain 2: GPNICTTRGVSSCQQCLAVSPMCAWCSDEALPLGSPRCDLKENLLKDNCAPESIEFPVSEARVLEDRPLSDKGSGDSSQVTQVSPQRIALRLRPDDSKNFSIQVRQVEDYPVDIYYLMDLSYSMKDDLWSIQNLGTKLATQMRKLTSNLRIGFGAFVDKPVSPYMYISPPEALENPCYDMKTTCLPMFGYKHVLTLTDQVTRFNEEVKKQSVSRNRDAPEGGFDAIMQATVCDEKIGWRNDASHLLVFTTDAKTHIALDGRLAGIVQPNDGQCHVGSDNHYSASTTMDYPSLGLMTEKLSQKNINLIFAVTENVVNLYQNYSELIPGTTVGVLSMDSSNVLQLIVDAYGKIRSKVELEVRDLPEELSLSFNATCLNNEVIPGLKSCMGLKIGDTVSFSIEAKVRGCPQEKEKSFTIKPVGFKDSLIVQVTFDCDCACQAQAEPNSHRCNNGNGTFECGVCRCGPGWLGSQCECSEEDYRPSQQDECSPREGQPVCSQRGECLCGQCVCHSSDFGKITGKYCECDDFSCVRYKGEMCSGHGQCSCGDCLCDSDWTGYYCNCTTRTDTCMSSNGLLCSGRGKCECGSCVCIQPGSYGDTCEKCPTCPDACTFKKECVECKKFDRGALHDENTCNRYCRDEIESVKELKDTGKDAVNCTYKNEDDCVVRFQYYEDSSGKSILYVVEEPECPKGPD

[2] = target: T2, integrin αvβ5 (Homo sapiens, UniProt P06756); experiment: as above
T2 chain 1: T1 chain 1
T2 chain 2: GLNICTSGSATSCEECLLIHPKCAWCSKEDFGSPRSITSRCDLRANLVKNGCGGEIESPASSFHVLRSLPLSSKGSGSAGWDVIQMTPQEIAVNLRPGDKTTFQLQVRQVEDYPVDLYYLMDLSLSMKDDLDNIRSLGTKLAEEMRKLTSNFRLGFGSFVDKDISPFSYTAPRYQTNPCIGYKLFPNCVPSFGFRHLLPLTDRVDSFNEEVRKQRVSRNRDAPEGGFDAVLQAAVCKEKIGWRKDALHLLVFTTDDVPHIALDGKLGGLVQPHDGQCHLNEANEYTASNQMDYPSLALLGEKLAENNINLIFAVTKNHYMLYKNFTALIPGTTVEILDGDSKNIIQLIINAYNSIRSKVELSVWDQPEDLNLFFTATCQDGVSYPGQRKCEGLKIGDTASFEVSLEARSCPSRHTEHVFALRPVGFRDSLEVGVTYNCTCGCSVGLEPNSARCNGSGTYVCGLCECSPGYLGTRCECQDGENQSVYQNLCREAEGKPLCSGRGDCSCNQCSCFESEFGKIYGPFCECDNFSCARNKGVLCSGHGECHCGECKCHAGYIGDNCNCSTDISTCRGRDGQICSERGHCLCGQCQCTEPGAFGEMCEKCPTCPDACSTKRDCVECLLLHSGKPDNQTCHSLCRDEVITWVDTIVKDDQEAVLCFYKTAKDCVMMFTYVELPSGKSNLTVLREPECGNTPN

[3] = target: integrin αIIbβ3 (Homo sapiens, UniProt P08514); experiment: competitive solid-phase binding assay with biotinylated fibronectin

Question: GRGDS (not fully specified) [GRGDS-CNP 5% (7 peptides per CNP)] was tested. Which IC50 [1] did it give?
Answer: 78.5 nM

Question: What about the IC50 [2] of the same binder?
Answer: > 1000 nM

Question: What about the IC50 [3] of the same binder?
Answer: > 1000 nM

Question: GRGDS (not fully specified) [GRGDS-CNP 50% (70 peptides per CNP)] was tested. Which IC50 [1] did it give?
Answer: 1.08 nM

Question: With GRGDS (not fully specified) [GRGDS-CNP 10% (14 peptides per CNP)] as the binder, how does the IC50 [1] read?
Answer: 12.5 nM

Question: For GRGDS (not fully specified) [GRGDS-CNP 20% (28 peptides per CNP)], which IC50 [1] is on record?
Answer: 5.21 nM
